From patent US20190345534
Read-outs that look alike come from different tables or passages of the source.

Experiments:
[1] = molecular target: T1, GzmB peptide substrate AIEFDSGc on PEG-coated iron oxide nanoparticles (GzmB-sensing synthetic biomarker)
T1 chain: AIEFDSGC

[2] = tested on: GzmB peptide substrate AIEFDSGc on PEG-coated iron oxide nanoparticles (GzmB-sensing synthetic biomarker); remark: listed apart in the source

B1: murine Granzyme B (recombinant, Peprotech) (protein)
chain: IIGGHEVKPHSRPYMALLSIKDQQPEAICGFLIREDFVLTAAHCEGSIINVTLGAHNIKEQEKTQQVIPMVKCIPHPDYNPKTFSNDIMLLKLKSKAKRTRAVRPLNLPRRNVNVKPGDVCYVAGWGRMAPMGKYSNTLQEVELTVQKDRECESYFKNRYNKTNQICAGDPKTKRASFRGDSGGPLVCKKVAAGIVSYGYKDGSPPRAFTKVSSFLSWIKKTMKSS
With B1 the “fluorescent intensity (in vitro protease cleavage assay)” value (shortened to “fluorescent intensity”) [1] was “Increases in fluorescent intensity were observed only in samples containing recombinant GzmB”, the kcat/KM [1] was “Fitted kcat/KM was 1.09×10^4 M^-1s^-1” and the “rate of cleavage (initial cleavage velocity, fluorescence)” value [1] was “the substrate that produced the highest rate of cleavage by recombinant GzmB”.

B2: Cls (Sigma) (enzyme, UniProt P09871 16-688, looked up, species assumed)
Complement C1s subcomponent: EPTMYGEILSPNYPQAYPSEVEKSWDIEVPEGYGIHLYFTHLDIELSENCAYDSVQIISGDTEEGRLCGQRSSNNPHSPIVEEFQVPYNKLQVIFKSDFSNEERFTGFAAYYVATDINECTDFVDVPCSHFCNNFIGGYFCSCPPEYFLHDDMKNCGVNCSGDVFTALIGEIASPNYPKPYPENSRCEYQIRLEKGFQVVVTLRREDFDVEAADSAGNCLDSLVFVAGDRQFGPYCGHGFPGPLNIETKSNALDIIFQTDLTGQKKGWKLRYHGDPMPCPKEDTPNSVWEPAKAKYVFRDVVQITCLDGFEVVEGRVGATSFYSTCQSNGKWSNSKLKCQPVDCGIPESIENGKVEDPESTLFGSVIRYTCEEPYYYMENGGGGEYHCAGNGSWVNEVLGPELPKCVPVCGVPREPFEEKQRIIGGSDADIKNFPWQVFFDNPWAGGALINEYWVLTAAHVVEGNREPTMYVGSTSVQTSRLAKSKMLTPEHVFIHPGWKLLEVPEGRTNFDNDIALVRLKDPVKMGPTVSPICLPGTSSDYNLMDGDLGLISGWGRTEKRDRAVRLKAARLPVAPLRKCKEVKVEKPTADAEAYVFTPNMICAGGEKGMDSCKGDSGGAFAVQDPNDKTKFYAAGLVSWGPQCGTYGLYTRVKNYVDWIMKTMQENSTPRED
With B2 the “fluorescent intensity” value [2] was “Increases in fluorescent intensity were observed only in samples containing recombinant GzmB”.

B3: Clr (Sigma) (enzyme, UniProt P00736 18-705, looked up, species assumed)
Complement C1r subcomponent: SIPIPQKLFGEVTSPLFPKPYPNNFETTTVITVPTGYRVKLVFQQFDLEPSEGCFYDYVKISADKKSLGRFCGQLGSPLGNPPGKKEFMSQGNKMLLTFHTDFSNEENGTIMFYKGFLAYYQAVDLDECASRSKSGEEDPQPQCQHLCHNYVGGYFCSCRPGYELQEDTHSCQAECSSELYTEASGYISSLEYPRSYPPDLRCNYSIRVERGLTLHLKFLEPFDIDDHQQVHCPYDQLQIYANGKNIGEFCGKQRPPDLDTSSNAVDLLFFTDESGDSRGWKLRYTTEIIKCPQPKTLDEFTIIQNLQPQYQFRDYFIATCKQGYQLIEGNQVLHSFTAVCQDDGTWHRAMPRCKIKDCGQPRNLPNGDFRYTTTMGVNTYKARIQYYCHEPYYKMQTRAGSRESEQGVYTCTAQGIWKNEQKGEKIPRCLPVCGKPVNPVEQRQRIIGGQKAKMGNFPWQVFTNIHGRGGGALLGDRWILTAAHTLYPKEHEAQSNASLDVFLGHTNVEELMKLGNHPIRRVSVHPDYRQDESYNFEGDIALLELENSVTLGPNLLPICLPDNDTFYDLGLMGYVSGFGVMEEKIAHDLRFVRLPVANPQACENWLRGKNRMDVFSQNMFCAGHPSLKQDACQGDSGGVFAVRDPNTDRWVATGIVSWGIGCSRGYGFYTKVLNYVDWIKKEMEEED
For B3, the “fluorescent intensity” value [2] was “Increases in fluorescent intensity were observed only in samples containing recombinant GzmB”.

B4: mouse plasmin (HaemTech) (protein)
chain: VYLSECKTGIGNGYRGTMSRTKSGVACQKWGATFPHVPNYSPSTHPNEGLEENYCRNPDNDEQGPWCYTTDPDKRYDYCNIPECEEECMYCSGEKYEGKISKTMSGLDCQAWDSQSPHAHGYIPAKFPSKNLKMNYCRNPDGEPRPWCFTTDPTKRWEYCDIPRCTTPPPPPSPTYQCLKGRGENYRGTVSVTVSGKTCQRWSEQTPHRHNRTPENFPCKNLEENYCRNPDGETAPWCYTTDSQLRWEYCEIPSCESSASPDQSDSSVPPEEQTPVVQECYQSDGQSYRGTSSTTITGKKCQSWAAMFPHRHSKTPENFPDAGLEMNYCRNPDGDKGPWCYTTDPSVRWEYCNLKRCSETGGSVVELPTVSQEPSGPSDSETDCMYGNGKDYRGKTAVTAAGTPCQGWAAQEPHRHSIFTPQTNPRAGLEKNYCRNPDGDVNGPWCYTTNPRKLYDYCDIPLCASASSFECGKPQVEPKKCPGRVVGGCVANPHSWPWQISLRTRFTGQHFCGGTLIAPEWVLTAAHCLEKSSRPEFYKVILGAHEEYIRGLDVQEISVAKLILEPNNRDIALLKLSRPATITDKVIPACLPSPNYMVADRTICYITGWGETQGTFGAGRLKEAQLPVIENKVCNRVEYLNNRVKSTELCAGQLAGGVDSCQGDSGGPLVCFEKDKYILQGVTSWGLGCARPNKPGVYVRVSRFVDWIEREMRNN
For B4, the “fluorescent intensity” value [1] was “Increases in fluorescent intensity were observed only in samples containing recombinant GzmB”.
